Like-named read-outs stand apart in the source and are kept apart here.

The subject of data set [1] is biotinylated alkaline phosphatase. In words: Microtiter plate assay, biotin-binding activity after heat treatment at 99.9° C. It counts as physicochemical. Conditions: 99.9° C. for various time periods. How it is done:
Reversibility of biotin binding was measured for avidin and the mutants with an IAsys optical biosensor (Laitinen, O. H. et al., FEBS Lett 461 (1999), 52-8). Protein samples were allowed to bind to a biotin-aminosilane cuvette in PBS containing 1 M NaCl. After the equilibrium was reached, biotin-containing buffer was added and the dissociation of the proteins was monitored. The affinities of the proteins towards 2-iminobiotin were determined with an IAsys optical biosensor (Marttila, A. T. et al. FEBS Lett 441 (1998), 313-7). Biotin-binding activity of the mutants Avd-ci and Avd-ccci after heat treatment was studied with a microtiter plate assay. Protein samples, 5 μg/ml concentration in PBS, were heated for various time periods at 99.9° C. and then chilled on ice. The samples were transferred to a Nunc Maxisorp-plate and incubated at 37° C. for 2 h. The wells were washed three times with PBS-Tween (0.05% v/v). […] The absorbances at 405 nm were measured after incubation for 45 minutes.
Biotin-binding activity of the proteins after heat treatment was studied with a microtiter plate assay (Nordlund, H. R., Laitinen, O. H., Uotila, S. T., Nyholm, T., Hytönen, V. P., Slotte, J. P. & Kulomaa, M. S. (2003) J. Biol. Chem. 278, 2479-2483). […] The absorbencies at 405 nm were measured after incubation for 45 minutes.

Data set [2] is described as follows: IASyS optical biosensor, binding in a 2-iminobiotin cuvette. Particulars: for Kd: 2-iminobiotin cuvette, 20.0° C. The method, then:
The biotin-binding characteristics of the AVR proteins were studied as previously described using the IASyS optical biosensor (Marttila, A. T., Airenne, K. J., Laitinen, O. H., Kulik, T., Bayer, E. A ., Wilchek, M. and Kulomaa, M. S. (1998) FEBS Lett. 441, 313-317; Laitinen, O. H., Airenne, K. J., Marttila, A. T., Kulik, T., Porkka, E., Bayer, E. A., Wilchek, M. and Kulomaa, M. S. (1999) FEBS Lett. 461, 52-8). Affinities were measured for 2-iminobiotin or biotin at 20.0° C. using a stirring power of 100%. Briefly, the protein under study in biotin-free buffer was allowed to bind to the biotin-coated surface of the IASyS cuvette. As a negative control, the protein under study was saturated with excess biotin prior to (and was also maintained under biotin excess upon) addition to the cuvette. Under these conditions, residual binding to the biotin surface of the cuvette could be regarded as unspecific, and was used as a measure of baseline variation. Binding equilibrium in the experimental cuvette was considered to be attained after no binding was detected as compared to negative control.
The actual dissociation constants (Kd) were calculated for the AVRs according to the kass and kdiss rates measured in a separate assay in different protein concentrations (varying between 10 μM and 100 pM) (Table 4 and FIG. 6). The binding seemed to follow two-order or even more complex kinetics. However, the first 1000 seconds of the binding fitted considerably well to the bi-phasic curve. All measured dissociation rate constants (kdiss) followed the first-order kinetics. Because of the extremely high binding, affinities of the AVRs for biotin could not be determined except for AVR1, AVR2 and AVR7. Binding to 2-iminobiotin was determined only for AVR4/5, and it was similar to that of avidin. The lack of binding for the other AVRs was surprising, since most of them were purified using 2-iminobiotin agarose.

Data set [3] in a line: Non-reducing SDS-PAGE thermostability, oligomeric forms after boiling. It counts as physicochemical. Conditions: boiled 20 minutes. The method, then: The heat stability of the AVRs was studied by using an SDS-PAGE-based method (Bayer, E. A., Ehrlich-Rogozinski, S. and Wilchek, M. (1996) Electrophoresis 17, 1319-1324). In this method, each protein sample was divided into two fractions one of which was kept biotin-free and the other was supplemented with an excess of biotin. The samples were then mixed with denaturing SDS-PAGE sample buffer (containing β-mercaptoethanol) and incubated at a given temperature for 20 minutes. After heat treatment, the samples were subjected to SDS-PAGE and visualised by staining with Coomassie brilliant blue. The relative proportions of tetrameric and monomeric forms of the AVR proteins (with avidin as the control) were detected. A similar assay, with β-mercaptoethanol omitted from the sample buffer, was performed to examine the presence of intersubunit disulfide-bridges. Sensitivity to proteinase K was studied both in the absence and in the presence of biotin as described (Laitinen, O. H., Airenne, K. J., Marttila, A. T., Kulik, T., Porkka, E., Bayer, E. A., Wilchek, M. and Kulomaa, M. S. (1999) FEBS Lett. 461, 52-8). The isoelectric point of each AVR was determined by isoelectric focusing as previously reported (Marttila, A. T., Airenne, K. J., Laitinen, O. H., Kulik, T., Bayer, E. A., Wilchek, M. and Kulomaa, M. S. (1998) FEBS Lett. 441, 313-317). The glycosylation patterns of the AVR proteins were studied by treating the proteins with Endo Hf and PNGase F glycosidase according to the manufacturer's instructions (New England Biolabs, Mass., USA).

The mark [4] stands for this setting: 2-iminobiotin cuvette (as for Kd of this protein).

B1: AVR4/5: Recombinant chicken avidin-related protein 4/5 (AVR4 and AVR5 identical in coding sequence) (protein, UniProt P56734 25-150, looked up)
Avidin-related protein 4/5: ARKCSLTGKWTNNLGSIMTIRAVNSRGEFTGTYLTAVADNPGNITLSPLLGIQHKRASQPTFGFTVHWNFSESTTVFTGQCFIDRNGKEVLKTMWLLRSSVNDISYDWKATRVGYNNFTRLCTVEE
One may read the Kd as the concentration at which binding is half-saturated. As for B1, the “biotin-binding activity after heat treatment” value in data set [1] is on record as “superior stability against boiling”. In data set [2] (setting [4]), the kass entry is recorded as “(1.8 ± 0.2) × 10^5 M^−1 s^−1” and the kdiss entry is “(1.7 ± 0.7) × 10^−3 s^−1”. In addition, in data set [2] (read-out: Kd calculated directly from the binding curves), the Kd was 91 nM. Besides, the Kd in data set [2] (read-out: Kd calculated from the equilibrium response data) is 570 nM. For the same molecule, in data set [2] (iminobiotin binding, highest concentration (2.2×10−6 M)), the “maximal binding (Rmax)” value is “ca. 1000 arc seconds”. In data set [3], the “Dimeric form, relative proportion” value is listed as 50 percentage and the “Monomeric form, relative proportion” value came to 50 percentage.

Source of the values: patent publication US20060281899A1, “Mutants of biotin binding protein” (priority 2002, published 2006).
